Test results taken from patent publication US20140294898A1.
Positions of bridges follow the written chain, without caps; N, C: chain ends. Non-standard residues stand in square brackets, D forms with d. Phe(F5) = N[C@@H](Cc1c(F)c(F)c(F)c(F)c1F)C(=O)O; NMeF = CN[C@@H](Cc1ccccc1)C(=O)O; NMeNle = CCCC[C@H](NC)C(=O)O; Sar = CNCC(=O)O

Tests used:
[1] = target: hPDL1(19-239)-TVMV-His (human) (UniProt Q9NZQ7); assay: HTRF competition of PD-1-Ig binding to PD-L1-His; cluster 3 = IC50 0.03045 to >10 uM or not done
hPDL1(19-239)-TVMV-His (human), sequence (Q9NZQ7 other isoform, or with tags, fused parts or gaps limits assumed): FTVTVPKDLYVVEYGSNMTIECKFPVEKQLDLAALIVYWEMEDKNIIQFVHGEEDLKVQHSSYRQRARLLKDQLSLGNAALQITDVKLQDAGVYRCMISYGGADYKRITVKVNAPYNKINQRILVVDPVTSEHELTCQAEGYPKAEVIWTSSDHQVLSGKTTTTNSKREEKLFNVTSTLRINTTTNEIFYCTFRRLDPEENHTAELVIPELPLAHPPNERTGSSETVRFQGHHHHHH

human PD-L1 (human) = human PD-L1 (human) (UniProt Q9NZQ7); assay: cell binding assay (CBA), PE-labeled PD-1-Ig on cells over-expressing human PD-L1; cluster 3 = IC50 0.07431 to >10 uM or not done
human PD-L1 (human), sequence (Q9NZQ7 19-290): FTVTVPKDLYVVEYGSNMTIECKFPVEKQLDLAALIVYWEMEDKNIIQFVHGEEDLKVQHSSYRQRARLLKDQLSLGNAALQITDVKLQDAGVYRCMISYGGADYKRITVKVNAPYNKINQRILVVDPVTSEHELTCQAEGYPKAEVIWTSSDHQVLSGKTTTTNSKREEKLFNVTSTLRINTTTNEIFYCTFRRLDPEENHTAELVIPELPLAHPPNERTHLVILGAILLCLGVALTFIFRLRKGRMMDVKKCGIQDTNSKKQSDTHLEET

HTRF IC50 cluster [1]: 3 cluster
CBA IC50 cluster (human PD-L1 (human)): 3 cluster
B1: Example 3078 (peptide)
peptide: {CH2CO}-[Phe(F5)][NMeF][NMeNle][Sar]DV[NMeF]Y[Sar]WYLCG-NH2
modifications: thioether N-13
SMILES: CCCC[C@H]1C(=O)N(C)CC(=O)N[C@@H](CC(=O)O)C(=O)N[C@@H](C(C)C)C(=O)N(C)[C@@H](Cc2ccccc2)C(=O)N[C@@H](Cc2ccc(O)cc2)C(=O)N(C)CC(=O)N[C@@H](Cc2c[nH]c3ccccc23)C(=O)N[C@@H](Cc2ccc(O)cc2)C(=O)N[C@@H](CC(C)C)C(=O)N[C@H](C(=O)NCC(N)=O)CSCC(=O)N[C@@H](Cc2c(F)c(F)c(F)c(F)c2F)C(=O)N(C)[C@@H](Cc2ccccc2)C(=O)N1C
